System: livers of mice
Test: RNAseq gene expression in liver of GCGR antibody treated mice
Assay type: in vivo, mouse
Conditions: 21 days
Method: All procedures were conducted in compliance with protocols approved by the Institutional Animal Care and Use Committee of Regeneron Pharmaceuticals. The in vitro and in vivo characteristics of REGN1193 (H4H1327P), a potent monoclonal GCGR blocking antibody has been previously described (See U.S. Pat. No. 8,545,847). This antibody was used as the exemplary glucagon signaling pathway antagonist in all studies in this report (See the HVCR/LCVR amino acid sequence pair of SEQ ID NOs: 86/88 in the present application. See also the corresponding heavy chain complementarity determining regions (HCDRs 1-2-3 of SEQ ID NOs: 72-74-76) and the corresponding light chain complementarity determining regions (LCDRs 1-2-3 of SEQ ID NOs: 80-82-84). The GCGR antibody and isotype control antibody were diluted with sterile PBS.
Total RNA was purified from all samples using MagMAX™-96 for Microarrays Total RNA Isolation Kit (Ambion by Life Technologies) according to manufacturer's specifications. Genomic DNA was removed using MagMAX™Turbo™DNase Buffer and TURBO DNase from the MagMAX kit listed above (Ambion by Life Technologies). mRNA was purified from total RNA using Dynabeads® mRNA Purification Kit (Invitrogen). Strand-specific RNA-seq libraries were prepared using ScriptSeq™ mRNA-Seq Library Preparation Kit (Epicentre). Twelve-cycle PCR was performed to amplify libraries. Sequencing was performed on Illumina HiSeq®2000 (Illumina) by multiplexed single-read run with 33 cycles.
Raw sequence data (BCL files) were converted to FASTQ format via Illumina Casava 1.8.2. Reads were decoded based on their barcodes and read quality was evaluated with FastQC (http://www.bioinformatics.babraham.ac.uk/projects/fastqc/). Reads were mapped to the mouse transcriptome (NCBI GRCh37) using CLC Genomics Workbench Version 7.0 (CLCbio) or TopHat2 (Version 2.0.10) allowing two mismatches. Reads mapped to the exons of a gene were summed at the gene level. To identify differentially expressed genes, the statistical significance (p-value) of the differential expressions was assessed with DESeq package (version 1.6 or 2.0).
A key role of glucagon is to promote the uptake and metabolism of amino acids in the liver to provide gluconeogenic precursors. To further explore this pathway, a recently described fully human GCGR-blocking antibody (Okamato et al, 2015, Endocrinol. 156:2781-2794; See also, U.S. Pat. No. 8,545,847) derived using VelocImmune technology (Macdonald et al., 2014, PNAS 111:5147-5152; Murphy et al., 2014, PNAS 111:5153-5158) was used in the experiments provided herein. […] As shown previously (Mu et al., 2012, PLOS ONE 7:349572; Okamoto et al., 2015, Endocrinol. 156:2781-2794; Solloway et al., 2015, Cell Reports 12:495-510), and confirmed later in this study, these findings provide a mechanism for the elevated circulating amino acid levels that are observed in mice and monkeys with impaired GCGR signaling.

[1] = liver of mice, 15 mg/kg α-GCGR vs control antibody

B1: α-GCGR: potent monoclonal GCGR blocking antibody, HCVR/LCVR SEQ ID NOs: 86/88 (antibody, V domains shown)
VH: EVQLVESGGGLVQPGGSLRLSCAASGFTFSNYLMNWVRQAPGKGLEWLANIQEDGIEKYYVDSVKGRFTISRDNAKNSLYLQMNSLRAEDTAVYYCAREPSHYDILTGYDYYYGMDVWGQGTTVTVS
VL: DIQMTQSPSSLSASVGDRVTITCRASQGIRNDLGWYQQKPGKAPKRLIYAASSLQSGVPSRFSGSGSGTEFILTVSSLQPEDFATYYCLQYNSNPFTFGPGTKVDIK
[1]
  Aass Fold change: −1.85
  Abat Fold change: −1.64
  Acmsd Fold change: −2.70
  Agxt Fold change: −2.17
  Aldh4a1 Fold change: −1.64
  Aldoa Fold change: −1.15
  Arg1 Fold change: −1.56
  Asl Fold change: −1.92
  Ass1 Fold change: −3.23
  Bhmt Fold change: −2.00
  Cbs Fold change: −1.85
  Cps1 Fold change: −1.96
  Cth Fold change: −3.12
  Ddc Fold change: −2.08
  Eno1 Fold change: −1.20
  Fbp1 Fold change: −1.67
  G6pc Fold change: −1.39
  Gcat Fold change: −1.67
  Gldc Fold change: −1.72
  Gnmt Fold change: −2.56
  Got1 Fold change: −8.33
  Gpi1 Fold change: 1.03
  Gpt Fold change: −1.72
  Hgd Fold change: −1.75
  Hpd Fold change: −1.92
  Ivd Fold change: −1.56
  Lap3 Fold change: −1.56
  Mat1a Fold change: −2.04
  Mpst Fold change: −1.61
  Nags Fold change: −1.67
  Oat Fold change: −6.67
  Otc Fold change: −1.12
  Pah Fold change: −1.75
  Pck1 Fold change: −1.82
  Pgam1 Fold change: −1.20
  Pgk1 Fold change: −1.16
  Prodh Fold change: −1.67
  Sardh Fold change: −1.75
  Sds Fold change: −3.23
  Slc1a2 Fold change: −1.25
  Slc3a1 Fold change: −1.72
  Slc3a2 Fold change: −1.08
  Slc6a9 Fold change: 1.45
  Slc7a2 Fold change: −2.27
  Slc15a3 Fold change: −1.12
  Slc15a4 Fold change: −1.15
  Slc16a10 Fold change: −1.28
  Slc17a8 Fold change: 2.32
  Slc25a12 Fold change: 1.27
  Slc25a13 Fold change: −1.27
  Slc25a15 Fold change: −1.92
  Slc25a22 Fold change: −1.56
  Slc36a1 Fold change: −1.41
  Slc36a4 Fold change: −1.18
  Slc38a2 Fold change: −1.08
  Slc38a3 Fold change: −1.75
  Slc38a4 Fold change: −1.56
  Slc38a6 Fold change: −1.09
  Slc38a7 Fold change: 1.05
  Slc38a9 Fold change: 1.17
  Slc38a10 Fold change: −1.04
  Slc43a1 Fold change: −2.78
  Tat Fold change: −4.35
  Tpi1 Fold change: −1.14
  pcx Fold change: −1.15
Liver of mice, 15 mg/kg α-GCGR
  Aass expression RPKM: 60.38 RPKM
  Abat expression RPKM: 43.18 RPKM
  Acmsd expression RPKM: 3.90 RPKM
  Agxt expression RPKM: 111.91 RPKM
  Aldh4a1 expression RPKM: 64.72 RPKM
  Aldoa expression RPKM: 16.24 RPKM
  Arg1 expression RPKM: 969.96 RPKM
  Asl expression RPKM: 151.51 RPKM
  Ass1 expression RPKM: 190.00 RPKM
  Bhmt expression RPKM: 98.73 RPKM
  Cbs expression RPKM: 126.52 RPKM
  Cps1 expression RPKM: 419.74 RPKM
  Cth expression RPKM: 139.77 RPKM
  Ddc expression RPKM: 15.03 RPKM
  Eno1 expression RPKM: 14.96 RPKM
  Fbp1 expression RPKM: 365.35 RPKM
  G6pc expression RPKM: 40.65 RPKM
  Gcat expression RPKM: 18.88 RPKM
  Gldc expression RPKM: 33.42 RPKM
  Gnmt expression RPKM: 449.55 RPKM
  Got1 expression RPKM: 9.98 RPKM
  Gpi1 expression RPKM: 16.58 RPKM
  Gpt expression RPKM: 103.74 RPKM
  Hgd expression RPKM: 109.59 RPKM
  Hpd expression RPKM: 874.17 RPKM
  Ivd expression RPKM: 51.86 RPKM
  Lap3 expression RPKM: 108.58 RPKM
  Mat1a expression RPKM: 525.98 RPKM
  Mpst expression RPKM: 17.32 RPKM
  Nags expression RPKM: 13.94 RPKM
  Oat expression RPKM: 66.76 RPKM
  Otc expression RPKM: 292.99 RPKM
  Pah expression RPKM: 232.16 RPKM
  Pck1 expression RPKM: 490.87 RPKM
  Pgam1 expression RPKM: 2.12 RPKM
  Pgk1 expression RPKM: 1.91 RPKM
  Prodh expression RPKM: 89.26 RPKM
  Sardh expression RPKM: 122.51 RPKM
  Sds expression RPKM: 39.47 RPKM
  Slc1a2 expression RPKM: 14.89 RPKM
  Slc3a1 expression RPKM: 9.78 RPKM
  Slc3a2 expression RPKM: 14.56 RPKM
  Slc6a9 expression RPKM: 10.29 RPKM
  Slc7a2 expression RPKM: 67.24 RPKM
  Slc15a3 expression RPKM: 1.15 RPKM
  Slc15a4 expression RPKM: 5.47 RPKM
  Slc16a10 expression RPKM: 14.93 RPKM
  Slc17a8 expression RPKM: 4.18 RPKM
  Slc25a12 expression RPKM: 4.68 RPKM
  Slc25a13 expression RPKM: 76.40 RPKM
  Slc25a15 expression RPKM: 50.85 RPKM
  Slc25a22 expression RPKM: 14.40 RPKM
  Slc36a1 expression RPKM: 3.90 RPKM
  Slc36a4 expression RPKM: 1.34 RPKM
  Slc38a2 expression RPKM: 17.59 RPKM
  Slc38a3 expression RPKM: 285.49 RPKM
  Slc38a4 expression RPKM: 261.42 RPKM
  Slc38a6 expression RPKM: 1.72 RPKM
  Slc38a7 expression RPKM: 4.41 RPKM
  Slc38a9 expression RPKM: 1.48 RPKM
  Slc38a10 expression RPKM: 19.58 RPKM
  Slc43a1 expression RPKM: 0.83 RPKM
  Tat expression RPKM: 197.67 RPKM
  Tpi1 expression RPKM: 46.09 RPKM
  pcx expression RPKM: 68.44 RPKM
Livers of mice, 15 mg/kg
  expression of genes involved in amino acid metabolism, urea cycle and gluconeogenesis: reduced expression
  expression of mitochondrial amino acid transporters Slc25a15 and Slc25a22: significantly reduced
  reduction of expression of plasma membrane amino acid transporters Slc38a3, Slc38a4, Slc7a2 and Slc3a1: 30-50%
